The data set is described as follows: yeast display, Sf9 membrane polyspecificity reagent, FACS + sequencing; frameworks hold sequencing errors. In a few lines:
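Galactose-induced (36–48 hours) yeast carrying a synthetic nanobody display library were exposed to 10% biotinylated, detergent-solubilized Sf9 membrane reagent at 4 °C for 1 hour. FACS followed streptavidin microbead enrichment, using low and high (top ~1%) gates for expression (anti-HA) and reagent binding (streptavidin). Colony PCR, MiSeq 2 × 250 sequencing and CDR-length filtering followed. Labels for polyreactivity reflect the gate of origin.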
With “QVQLVESGGGLVQAGGSLRLSCAATGSTSVHNAMGWYRQAPGKERELVDAITSDGSTNYADSVKGRFTISRDNAKNTVYLQMNSLKPEDTAVYFCGAAYWTRLRRMDYWGQGTQVTVSS”, the “polyreactivity (PSR sort gate)” value was “low polyreactivity”.
As for “QVQLVESGGGLVQAGCSLSLSCAASGSIFGRYTMGWYRQAPGKERELVAAINLRGGSTYYADSVKGRFTISRDNAKNTVYLQMNSLKPEDTAVYYCATVGWKQSAYDYWGQGTQVTVSS”, the “polyreactivity (PSR sort gate)” value was “low polyreactivity”.
Take “QVQLVESGGGLVQAGGSLRLSCAASVNIFSFYAMGWNRQAPGKERELVAAIIWSGGDTYYADSVKGRFTISLDNAKNTVYLQMNSLKPEDTAVYYCAAEYYYQYYPGGYDYWGQGSQVTVSS”: the “polyreactivity (PSR sort gate)” value is “high polyreactivity”.
On to “QVQLVESGGGLVQAGGSLRLSCAASGRIFVRYAMGWYRPAPGKERELVATISSRGGSTYYADSVKGRFTISRDNAKNTVYLQMTSLKPEDTAVYYWAAYVYPWGRDYWGQGTQVTVSS”, for which the “polyreactivity (PSR sort gate)” value is listed as “high polyreactivity”.
The value for “QVQLVESGGGLVQAGGSLRLSCAASGRTFGQNAMGWYRQAPGKERELVATITLNGGNTYYADSVKGRFTISRDNAKNTVYLQMNSLKPEDTAVYYCNAVPSWYRYRPPRFDYWGQGTQVTVSS” was “low polyreactivity”; that for “QVQLVESGGGLVQAGGSLRLSCAYSGLTFTWYAMGWYRQAPGKERELVAGISSGTSTNYADSVKGRFSISRDTAKNTVYLQMNSMKAEATAVYYCNAKQLGKFDYWGQGTHVTVSS” was “low polyreactivity”.
Turning to “QVQLVESGGGLVQAGGSLRLSCAASGIIFTFYAMGWYRQAPGKERELVAAISYSSGSTYADSVKGRFTISRDNAKNTVYLQMNSLKPDDTAVYYCAVDLFPGHSYTYDYWGQGTQVTVSS”, the “polyreactivity (PSR sort gate)” value is listed as “low polyreactivity”.
Consider “QVQLVESGGGLVQAGGSLRLSCAASGRIFDRNAMGWYRQAPGKERELVAAIDDSGGDTSYADSVKGRFTISRDTAKNTVYLQMNSLKPEDTAVYYCAAKRQYYQTGSQRSYPYDYWGQGTQVTVSS”, for which the “polyreactivity (PSR sort gate)” value is given as “low polyreactivity”.
On to “QVQLVESGGGLVQAGGSLRLSCSASGGTFITNAMGWYRQAPGKERELVAAITSGGRTTYADSVKGRFTISRDNAKNTVYLQMNSLKPEDTAVYYCAADHVYSYTYNFDYWGQGTQVTVSS”, for which the “polyreactivity (PSR sort gate)” value is reported as “low polyreactivity”.
Regarding “QVQLVESGGGLVQAGGSLRLSCAASGSIFNSNGMGWYRPAPGKERELVAAITGGGSTNYADSVKGRFTISRDNAKNTVYLQMNSLKPEDTAVYYCAARPLRTDWAYYYWGQGTQVTVSS”, the “polyreactivity (PSR sort gate)” value is given as “low polyreactivity”.
Take “QVQLVESGGGLVQAGGSLRLSCAASGFIFRRYVMGWYRQAPGKERELVAAISTSGGSTYYADSVKGRFTISRDNAKNSVYLQMNSLKPADTAVYYCNKAVGVTGFDYWGQGTEVTVSS”: the “polyreactivity (PSR sort gate)” value is on record as “high polyreactivity”.
Take “QVQLVESGGGLVQAGGSLRLSWAASGSNFDAYAMGWYRPAPGKERELVAAINARGGSTYYADSVKGRFTISRDNAKNTVYLQMNSLKPEETAVYDCNRLSRVRRYIYDYWGQGTQVTVSS”: the “polyreactivity (PSR sort gate)” value is “high polyreactivity”.
“QVQLVESGGGLVQAGGSLRLSCAASGFIFYLYAMGWYRQAPGKEMELVAAISWGGGTTYYADSVKGRFTISRDNAKNTVYLKMNSLKPEDTAVYYCAAETEYYSYRFDYWGQGTQVTVSS”: the “polyreactivity (PSR sort gate)” value is listed as “high polyreactivity”.
In the case of “QVQLVESGGGLVQAGASLRLSCAAYGNINAYYAMGWYRQAPGKERELVAAITDSGGNTFYADSVKGRFTISRDNAKNTVYLQMNSLTPADSAVYYCADDPDGWGFVYPRYDYWGQCTQVTVSS”, the “polyreactivity (PSR sort gate)” value was “low polyreactivity”.
Then “QVQLVESGGGLVQAGGSLRLSCAASGFTFYTYVMGWYRQAPGKERELVAAITSGVSTNYADSVKGRFTISRDNAKNTVYLQMNSLKPEDTAVYYCAAGSDFQYGHDYWGQGTQVTVSS”, with “low polyreactivity”.
As to “QVQLVESGGGLVQAGGSLRLSCAASGRTFSIYAMGWYRQAPGKERELVASITGRGTRTYYADSVKGRFTISRDNAKNTVYLQMNSLKPEDTAVYYCNARGKVQSSYDDDYWGQGTQVTVSS”, the “polyreactivity (PSR sort gate)” value is on record as “high polyreactivity”.
For the sequence “QVQLVESGGGLVQAGGSLRLSCAASGRTFFGYAMGWYRQAPGKERELVAAISGGGRTNYADSVKGRFTISRDNAKNTVYLQMNSLKPEDTAVYYCAARLVKYFRPYDYWGQGTQVTVSS”, the “polyreactivity (PSR sort gate)” value was “high polyreactivity”.
Then “QVQLVESGGGLVQAGGSLRLSCAASGRIFSYNAMGWYRQAPGKERELVAAIRVRGGSTYYADSVKGRFTLSRDNAKNTVYLQMNSLKPEDTAVYYCNASDYKISATNAVVRYYYWGQGTQVTVSS”, with “high polyreactivity”; and “QVQLVESGGGLVQAGGSLRLICAASGFIFHSYAMGWYRQAPGKERELVARITIGDSTKYADSVKGRFTISRDNAKNTVYLQMNSLKPEDTAVYYCAADGWRYIAYYQGFRRMNYWGQGTQVTVSS”, with “high polyreactivity”; and “QVQLVESGGGLVQAGGSLRLSCAASGSILGINVMGWYRQAPGKERELVAAISRRGGSTYYADSVKGRFTISRDNAKNTVYLQMNSLKPEDTAVYYCAATRTARTMGYCGQGTQVTVSS”, with “high polyreactivity”.
Turning to “QVQLVESGGGLVQAGGSLRLSCAASGNTFPAYAMGWYRQAPGKERELVATISWSTGSTNYADSVKGRFTISRDIAKNTVYLQMNSLKPEDTAVYYCNKELYDFKDRNLKAFLLRIFDSWGQGTQVTVSS”, the “polyreactivity (PSR sort gate)” value is “low polyreactivity”.
Turning to “QVQLVESGGGIVQAGGSLRLSCAASGRIFLTNAMGWYRQAPGKERELVADISRGGSTYPDSVKGRFTISRDNAKNTVYLQMNSLKPEDTAVYYCAADEYSPGDSRTRYDYWGQGTQVTVSS”, the “polyreactivity (PSR sort gate)” value was “low polyreactivity”.
Then “QVQLVESAGGLVQAGGSLRLSCAASGRTLTFKTMGWYRQAPGKERELVAGISYSGGSTYYADSVKGRFTISRDNAKNTVYLQMNSLKPEDTAVYYCNAVRVYRRRYDSWGQGTKVTVSS”, with “high polyreactivity”.
Consider “QVQLVESGGGLVQAGGSLRLSCAASGFIYSAYAMGWYRQAPGKERELVAAISYSGGTTYYADSVKGRFTISRDNAKNTVYLQMNSLKPEDTAVYYCAAGVGYWGQGTQVTVSS”, for which the “polyreactivity (PSR sort gate)” value is on record as “high polyreactivity”.
The value for “QVQLVESGGGLVQAGRRLRLSCAASGRIFSRNAMGWYRQAPGKERELVAVITKRGGSTYYADSVKGRFTISRDNAKNTVYLQMNSLKPEDSAVYYCNRRPYTGLGRLDYWGQGTQVTVSS” was “high polyreactivity”; that for “QVQLVESGGGLVQAGGSLRLSCAASGSISGLYAKGWYRQAPGKERELVAAITFRDGTTSYADSVKGRFTISRDNAKNTVYLQMNSLKPEDTAVYYCAAVDRDSNSSVPTLVHWGQGTQVTVSS” was “low polyreactivity”.
As for “QVQLVESGGGLVQAGGSLRLSCAASGFTFWDYAMGWYRQAPGKERELVAAISSRGTRTYYADSVKGRFTISRDNAKNTVYFQMNSLKPEDTAVYYCATAIPDPDYIHNYWGQGTQVTVSS”, the “polyreactivity (PSR sort gate)” value is listed as “high polyreactivity”.
Take “QVQLVESGGGLVQAGGSLSLSCAASGPTFGEYVMGWYRQAPGKERELVASISRRGGSTYYADSVKGRFTISRDNAKNTVYLQMNSLKPEDTAVYYCAKYRTQWSKNLYPYGFDYWGQGTQVTVSS”: the “polyreactivity (PSR sort gate)” value is reported as “low polyreactivity”.
The value for “QVQHEESGGGLVQAGGSLRISCAASGTTFFTYAMGWYRPAPGKEREFVAAISWSDDSTYYADSVKGRFTISRDYAKNTVYLQMNSLKPEDTAVYYCAAEWGQRGGGGYYYWGQGTQVTVSS” was “low polyreactivity”; that for “QVQLVESGGGLVQAGGSLRLSCAASGSIFQGNAMGWYTQAPGKERELVAAITYSGGSTYYADSVKGRFTISRDNAKNTVYLQMNSLKAEDTAVYYCNTTLRDSRQYVDRAQYNRYDYWGQGTQVTVSS” was “low polyreactivity”.
For the sequence “QVQLVDSGGGLVQAGGRLRLSCAASGFIIDWNTKGWYRQAPGKERELVAAITESSGSTYYADSVKGRFTISRDNAKNTVYLLMNSLKPVDTAVYYCGAELDVSVCFVSRFHFDYWGQGTQVTVSS”, the “polyreactivity (PSR sort gate)” value is “low polyreactivity”.
Turning to “QVQLVESGGGLVQAGGSLRLSCAASGRTLGVNAMGWYRQAPGKERELVAAISTRGTTTNYADSVKGRFTISRDNAKNTVYLQMNSLKPEDTAVYYCATRTYRTYPRYDYWGQGTQVTVSS”, the “polyreactivity (PSR sort gate)” value was “high polyreactivity”.
In the case of “QDQLVESGGGLVQGGGSLRLSCAGSGFTFSRYAMGSYRQAPGKERELVAAITRRRGRTYYADSVKGRFTISLDNAKNTVYFKMNSLYPEDTAVYYCNTDAYRLGYDYWGQGTQVTVSS”, the “polyreactivity (PSR sort gate)” value is “high polyreactivity”.
“QVQLVESGGRLVQAGGSLRLSCAASGSTFNINAMGWYRQAPGKERELVAAISWSGDITYYADSVKGRFTISRDNAKNNVYLQMNSLKPEDTAVYYCNTDDPGNYWYAEYDYWGQGTQVTVSS”: the “polyreactivity (PSR sort gate)” value is on record as “low polyreactivity”.
On to “QVQHVESGGGLVQAGGSLRLSCAASGRTFHQNAMGWYRQAPGKERELVATITAGSGSTYYADSVKGRFTISGDNAKNTVYLQMNSVKPEDTAVYFWNAKWTLYQSDYWYYIYDYCGQGTQVTVSS”, for which the “polyreactivity (PSR sort gate)” value is recorded as “low polyreactivity”.
Turning to “QVQLVESGGGLVQAGGSLRLSCASSGFTFKFNAMGWYRPAPGKERELVAAISQSGVNTYYADSVKGRFTISRDNAKNTVFLLMNSLKPEDTAVYYCAADFSAYGYDYWGQGTQVTVSS”, the “polyreactivity (PSR sort gate)” value is given as “low polyreactivity”.
On to “QVQLVESGGGLVQAVGSLRLSCAASGRTFDEYAMGWYRQAPGKERELVAAISTRGGSTYYADSVKGRFTISRDNAKNTVYLQMNSLKPEDTAVYYCAADYTKSSSPWPGYYWGQGTQVTVSS”, for which the “polyreactivity (PSR sort gate)” value is listed as “high polyreactivity”.
For “QVQLVESGGGLVQAGGSLRLSCAASGLILSTYAMGWYRQAPGKERELVAAITWRSGSTYYADSVKGRFTISRDNAKNTVYLQMNSLKPEDTAVYYCNVAPTFPYNGYEYWGQGTQVTVSS”, the “polyreactivity (PSR sort gate)” value is “high polyreactivity”.
Then “QVQLVESGGGLVQAGGSLRLSCAASGRIFATNAMGWYIQAPGKERELVAAISWDGGSTYYADSVKGRFTISRDNAKNTVYLQMNSLKPEDTAVYYCNKVLYYAYDYWGQGTQVTVSS”, with “low polyreactivity”.
Consider “QLQLVESGGGLVQAGGSLRLSCAASGSTFDYNAKGWYRQAPGKERELVAAITSTGGNTYYADSVKGRFTIARDNAKNSVYIQMNSLKQEDTAVYYCNKDVARYPYGKCDYWGQGTQVTVSS”, for which the “polyreactivity (PSR sort gate)” value is reported as “low polyreactivity”.
In the case of “QVQLVESGGGLVQAGGSLRLSCAASGSIFRWNAMGWNRQEPGKERELVAVINSSGGSTYYADSVKGRFTISRDNAKNTVYLQMNSLKPEDTAVYYCAKGYDTTLTYNYWGQGTQVTVSS”, the “polyreactivity (PSR sort gate)” value was “low polyreactivity”.

The values are drawn from the nanobody polyreactivity screen of Harvey et al. (2022).
